Assay results from PMC5147862.

Target: KRAS, mGppNHp-bound (human) (UniProt P01116)
Test: fluorescence polarisation; MBP-tagged effector domain (0.05-100 μM) titrated to 1 μM RAS-mGppNHp; 50 mM Tris/HCl pH 7.5, 100 mM NaCl, 5 mM MgCl2, 3 mM dithiothreitol, 25°C; quadratic ligand binding equation

Kd: 0.421 µM
B1: RAS association (RA) domain of RASSF5, MBP fusion (domain or fragment)
chain: EETQRPPTLQEIKQKIDSYNTREKNCLGMKLSEDGTYTGFIKVHLKLRRPVTVPAGIRPQSIYDAIKEVNLAATTDKRTSFYLPLDAIKQLHISSTTTVSEVIQGLLKKFMVVDNPQKFALFKRIHKDGQVLFQKLSIADRPLYLRLLAGPDTEVLSFV
